Key:
Type in all cases: cell-based
SSTR4 = target: T1, SSTR4 (Homo sapiens, UniProt P31391); assay: PathHunter β-arrestin2-EA / GPCR-ED enzyme fragment complementation, SSTR4-ED fusion; details: saturating ligand
T1 construct: The entire GPCR coding regions were cloned downstream of the CMV promoter and upstream of the ED; expressed in transfected cells; host or cells: HEK293 or CHOK1 cells, retroviral infection (pLNCX2)
From the text: The cells used were HEK293 and CHOK1 cells. […] The viral plasmid was the PLNCX2 vector from Clontech. The plasmid includes sufficient retroviral sequences to enable viral production in the appropriate packaging cell lines. The plasmid also includes the neomycin antibiotic resistance gene and a CMV promoter that is used to drive expression of the target ED fusion. […] The ED is fused at the intracellular terminus, i.e., C-terminus of the proteins.
Preparation of Detection Reagents—The detection reagents must be prepared as a working solution prior to use, and once prepared are stable for at least 24 hours at room temperature with no impact on assay performance. The detection reagents consist of the substrate and co-factors for chemiluminescence signal detection, as well as the reagents necessary for selective cell permeabilization. Working solution is prepared by combining PathHunter™ Cell Assay Buffer (DiscoveRx, Inc., Fremont, Calif.), Galacton Star® and Emerald II® reagent to 25 μl of cells+compound. reagents (ABI, Bedford, Mass.) at a ratio of 19:1:5.
The fourth column indicates the fold induction for each of the constructs, where saturating conditions of the ligand were employed.

P2RY6 = target: T2, P2RY6 (Homo sapiens, UniProt Q15077); assay: PathHunter β-arrestin2-EA / GPCR-ED enzyme fragment complementation, P2RY6-ED fusion; details: saturating ligand
T2 construct: The entire GPCR coding regions were cloned downstream of the CMV promoter and upstream of the ED; expressed in transfected cells; host or cells: HEK293 or CHOK1 cells, retroviral infection (pLNCX2)
From the text: (§1) The following are the directions for performing the determinations of the response to inducing agents and comparing the prior art ED (pK1) to an ED of the subject invention (pK2):
(§2) The cells used were HEK293 and CHOK1 cells. Following substantially the procedures described in U.S. patent application Ser. No. 10/229,247, filed Aug. 27, 2002, and U.S. patent application Ser. No. 11/132,764 (Publication no. 2005/0287522), filed May 18, 2005, whose disclosures are specifically incorporated by reference, each of the cell lines was infected with retroviral constructs. The viral plasmid was the PLNCX2 vector from Clontech. The plasmid includes sufficient retroviral sequences to enable viral production in the appropriate packaging cell lines. The plasmid also includes the neomycin antibiotic resistance gene and a CMV promoter that is used to drive expression of the target ED fusion. […] The ED is fused at the intracellular terminus, i.e., C-terminus of the proteins.
(§3) Preparation of Detection Reagents—The detection reagents must be prepared as a working solution prior to use, and once prepared are stable for at least 24 hours at room temperature with no impact on assay performance. The detection reagents consist of the substrate and co-factors for chemiluminescence signal detection, as well as the reagents necessary for selective cell permeabilization. […]

CHRM2 = target: T3, CHRM2 (Homo sapiens, UniProt P08172); assay: PathHunter β-arrestin2-EA / GPCR-ED enzyme fragment complementation, CHRM2-ED fusion; details: saturating ligand
T3 construct: The entire GPCR coding regions were cloned downstream of the CMV promoter and upstream of the ED; expressed in transfected cells; host or cells: HEK293 or CHOK1 cells, retroviral infection (pLNCX2)
From the text: as §1, §2, §3

CRTH2 = target: T4, CRTH2 (Homo sapiens, UniProt Q9Y5Y4); assay: PathHunter β-arrestin2-EA / GPCR-ED enzyme fragment complementation, CRTH2-ED fusion; details: saturating ligand
T4 construct: The entire GPCR coding regions were cloned downstream of the CMV promoter and upstream of the ED; expressed in transfected cells; host or cells: HEK293 or CHOK1 cells, retroviral infection (pLNCX2)
From the text: as §1, §2, §3

PTHR2 = target: T5, PTHR2 (Homo sapiens, UniProt P49190); assay: PathHunter β-arrestin2-EA / GPCR-ED enzyme fragment complementation, PTHR2-ED fusion; details: PTHR2 fused to PK2 ED; saturating ligand
T5 construct: The entire GPCR coding regions were cloned downstream of the CMV promoter and upstream of the ED; expressed in transfected cells; host or cells: HEK293 or CHOK1 cells, retroviral infection (pLNCX2)
From the text: as §1, §2
Preparation of Detection Reagents—The detection reagents must be prepared as a working solution prior to use, and once prepared are stable for at least 24 hours at room temperature with no impact on assay performance. The detection reagents consist of the substrate and co-factors for chemiluminescence signal detection, as well as the reagents necessary for selective cell permeabilization. Working solution is prepared by combining PathHunter™ Cell Assay Buffer (DiscoveRx, Inc., Fremont, Calif.), Galacton Star® and Emerald II® reagent […]. reagents (ABI, Bedford, Mass.) at a ratio of 19:1:5. Sufficient reagent is provided in each kit to perform the indicated number of assays in a 384-well, full-volume microplate assuming an addition of 12 μl of detection reagent per well or in a 96-well, full-volume microplate assuming an addition of 50 μl of detection reagent per well. […]

CCR6 = target: T6, CCR6 (Homo sapiens, UniProt P51684); assay: PathHunter β-arrestin2-EA / GPCR-ED enzyme fragment complementation, CCR6-ED fusion; details: saturating ligand
T6 construct: The entire GPCR coding regions were cloned downstream of the CMV promoter and upstream of the ED; expressed in transfected cells; host or cells: HEK293 or CHOK1 cells, retroviral infection (pLNCX2)
From the text: as §1, §2, §3

CCR4 = target: T7, CCR4 (Homo sapiens, UniProt P51679); assay: PathHunter β-arrestin2-EA / GPCR-ED enzyme fragment complementation, CCR4-ED fusion; details: saturating ligand
T7 construct: The entire GPCR coding regions were cloned downstream of the CMV promoter and upstream of the ED; expressed in transfected cells; host or cells: HEK293 or CHOK1 cells, retroviral infection (pLNCX2)
From the text: as §1, §2, §3

SALPR = target: T8, SALPR (Homo sapiens, UniProt Q9NSD7); assay: PathHunter β-arrestin2-EA / GPCR-ED enzyme fragment complementation, SALPR-ED fusion; details: saturating ligand
T8 construct: The entire GPCR coding regions were cloned downstream of the CMV promoter and upstream of the ED; expressed in transfected cells; host or cells: HEK293 or CHOK1 cells, retroviral infection (pLNCX2)
From the text: as §1, §2, §3

T5 sequence (P49190 25-550, species assumed): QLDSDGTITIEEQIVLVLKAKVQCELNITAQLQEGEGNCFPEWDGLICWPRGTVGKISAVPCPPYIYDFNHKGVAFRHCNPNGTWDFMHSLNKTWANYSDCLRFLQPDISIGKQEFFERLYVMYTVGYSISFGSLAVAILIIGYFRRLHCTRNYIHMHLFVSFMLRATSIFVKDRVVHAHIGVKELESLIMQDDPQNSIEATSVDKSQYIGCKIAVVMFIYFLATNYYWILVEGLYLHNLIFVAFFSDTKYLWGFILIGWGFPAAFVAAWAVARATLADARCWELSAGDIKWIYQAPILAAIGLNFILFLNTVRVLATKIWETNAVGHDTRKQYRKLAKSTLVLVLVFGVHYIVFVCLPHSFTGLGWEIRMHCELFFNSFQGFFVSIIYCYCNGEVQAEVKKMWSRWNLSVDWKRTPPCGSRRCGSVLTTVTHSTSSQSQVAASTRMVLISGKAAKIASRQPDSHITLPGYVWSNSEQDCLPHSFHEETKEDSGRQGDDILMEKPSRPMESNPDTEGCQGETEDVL
T5 sequence (P32121 whole entry partner, species assumed, the tested form may be a part): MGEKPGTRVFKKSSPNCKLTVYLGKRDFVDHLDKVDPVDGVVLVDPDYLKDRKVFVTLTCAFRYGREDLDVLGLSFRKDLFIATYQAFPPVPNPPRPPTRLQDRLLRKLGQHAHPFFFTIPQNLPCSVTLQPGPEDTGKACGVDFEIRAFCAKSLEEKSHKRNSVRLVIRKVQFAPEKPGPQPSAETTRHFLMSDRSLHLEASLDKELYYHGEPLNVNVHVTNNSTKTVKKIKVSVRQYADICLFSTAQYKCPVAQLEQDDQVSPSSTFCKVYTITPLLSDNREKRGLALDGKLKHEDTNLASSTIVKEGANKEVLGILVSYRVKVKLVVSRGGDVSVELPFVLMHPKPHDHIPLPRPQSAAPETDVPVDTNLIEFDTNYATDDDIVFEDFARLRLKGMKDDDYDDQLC
T3 sequence (P08172 whole entry, species assumed, the tested form may be a part): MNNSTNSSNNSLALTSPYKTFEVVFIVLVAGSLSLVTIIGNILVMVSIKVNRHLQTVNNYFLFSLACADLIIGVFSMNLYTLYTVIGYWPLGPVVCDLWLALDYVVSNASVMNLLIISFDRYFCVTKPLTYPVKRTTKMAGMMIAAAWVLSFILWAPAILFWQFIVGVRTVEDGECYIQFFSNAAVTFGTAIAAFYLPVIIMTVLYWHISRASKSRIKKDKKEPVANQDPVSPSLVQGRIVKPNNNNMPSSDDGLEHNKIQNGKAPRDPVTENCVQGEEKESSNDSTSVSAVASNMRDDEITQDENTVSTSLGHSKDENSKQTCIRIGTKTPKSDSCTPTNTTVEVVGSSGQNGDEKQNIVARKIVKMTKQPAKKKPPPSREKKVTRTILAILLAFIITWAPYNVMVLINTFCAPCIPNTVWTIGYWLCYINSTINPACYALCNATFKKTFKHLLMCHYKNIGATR
T3 sequence (P32121 whole entry partner, species assumed, the tested form may be a part): as the sequence (P32121 whole entry partner, species assumed, the tested form may be a part) above
T2 sequence (Q15077 whole entry, species assumed, the tested form may be a part): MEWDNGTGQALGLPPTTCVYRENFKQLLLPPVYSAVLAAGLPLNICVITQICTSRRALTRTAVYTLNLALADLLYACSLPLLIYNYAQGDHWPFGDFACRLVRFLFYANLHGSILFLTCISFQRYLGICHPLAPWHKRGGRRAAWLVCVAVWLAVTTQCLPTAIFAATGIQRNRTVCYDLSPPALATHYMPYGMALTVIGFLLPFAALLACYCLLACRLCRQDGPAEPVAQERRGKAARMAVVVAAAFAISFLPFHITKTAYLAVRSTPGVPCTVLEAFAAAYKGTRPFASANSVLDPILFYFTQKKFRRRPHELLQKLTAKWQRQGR
T2 sequence (P32121 whole entry partner, species assumed, the tested form may be a part): as the sequence (P32121 whole entry partner, species assumed, the tested form may be a part) above
T4 sequence (Q9Y5Y4 whole entry, species assumed, the tested form may be a part): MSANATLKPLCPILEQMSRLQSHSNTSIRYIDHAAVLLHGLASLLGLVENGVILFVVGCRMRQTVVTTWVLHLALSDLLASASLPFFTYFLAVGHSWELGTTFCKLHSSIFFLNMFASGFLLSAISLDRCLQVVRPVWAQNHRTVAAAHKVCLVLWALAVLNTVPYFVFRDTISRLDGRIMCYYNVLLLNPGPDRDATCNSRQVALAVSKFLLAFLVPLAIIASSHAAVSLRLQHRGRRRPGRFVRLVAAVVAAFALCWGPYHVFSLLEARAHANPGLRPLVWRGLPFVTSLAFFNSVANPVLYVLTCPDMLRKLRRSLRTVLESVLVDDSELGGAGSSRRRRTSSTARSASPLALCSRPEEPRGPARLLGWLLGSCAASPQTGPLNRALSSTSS
T4 sequence (P32121 whole entry partner, species assumed, the tested form may be a part): as the sequence (P32121 whole entry partner, species assumed, the tested form may be a part) above
T1 sequence (P31391 whole entry, species assumed, the tested form may be a part): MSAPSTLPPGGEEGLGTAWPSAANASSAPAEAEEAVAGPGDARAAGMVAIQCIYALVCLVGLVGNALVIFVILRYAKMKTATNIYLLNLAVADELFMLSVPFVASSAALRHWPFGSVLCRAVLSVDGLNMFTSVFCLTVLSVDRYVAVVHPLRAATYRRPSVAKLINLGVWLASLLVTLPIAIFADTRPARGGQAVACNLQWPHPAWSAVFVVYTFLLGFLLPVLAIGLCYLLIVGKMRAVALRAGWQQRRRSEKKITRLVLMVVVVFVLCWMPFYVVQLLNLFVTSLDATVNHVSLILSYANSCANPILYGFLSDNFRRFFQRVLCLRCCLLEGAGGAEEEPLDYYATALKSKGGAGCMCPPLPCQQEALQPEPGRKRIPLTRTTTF
T1 sequence (P32121 whole entry partner, species assumed, the tested form may be a part): as the sequence (P32121 whole entry partner, species assumed, the tested form may be a part) above
T8 sequence (Q9NSD7 whole entry, species assumed, the tested form may be a part): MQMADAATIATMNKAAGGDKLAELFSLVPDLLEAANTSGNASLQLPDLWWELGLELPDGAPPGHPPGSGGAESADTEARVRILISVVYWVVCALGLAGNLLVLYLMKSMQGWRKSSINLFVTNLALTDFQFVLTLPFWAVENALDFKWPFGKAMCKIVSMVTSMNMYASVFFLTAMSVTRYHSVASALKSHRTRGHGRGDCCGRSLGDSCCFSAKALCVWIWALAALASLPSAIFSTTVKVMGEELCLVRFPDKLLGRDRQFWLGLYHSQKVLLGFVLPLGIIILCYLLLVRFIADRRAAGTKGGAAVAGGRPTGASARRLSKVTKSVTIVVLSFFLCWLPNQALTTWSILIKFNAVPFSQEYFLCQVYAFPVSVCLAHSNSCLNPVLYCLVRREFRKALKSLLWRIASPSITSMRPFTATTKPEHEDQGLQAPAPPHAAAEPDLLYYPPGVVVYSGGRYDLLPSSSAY
T8 sequence (P32121 whole entry partner, species assumed, the tested form may be a part): as the sequence (P32121 whole entry partner, species assumed, the tested form may be a part) above
T6 sequence (P51684 whole entry, the tested form may be a part): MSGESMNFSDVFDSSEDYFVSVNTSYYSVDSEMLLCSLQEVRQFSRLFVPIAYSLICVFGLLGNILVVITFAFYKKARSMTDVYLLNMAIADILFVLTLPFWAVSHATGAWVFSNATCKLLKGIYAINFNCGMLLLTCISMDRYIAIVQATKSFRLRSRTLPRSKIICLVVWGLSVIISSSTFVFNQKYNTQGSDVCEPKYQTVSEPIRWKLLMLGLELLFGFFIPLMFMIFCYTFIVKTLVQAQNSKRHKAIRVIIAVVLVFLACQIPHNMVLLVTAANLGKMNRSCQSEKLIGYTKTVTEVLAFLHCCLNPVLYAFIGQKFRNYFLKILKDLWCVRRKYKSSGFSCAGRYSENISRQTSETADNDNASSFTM
T6 sequence (P32121 whole entry partner, the tested form may be a part): as the sequence (P32121 whole entry partner, species assumed, the tested form may be a part) above
T7 sequence (P51679 whole entry, the tested form may be a part): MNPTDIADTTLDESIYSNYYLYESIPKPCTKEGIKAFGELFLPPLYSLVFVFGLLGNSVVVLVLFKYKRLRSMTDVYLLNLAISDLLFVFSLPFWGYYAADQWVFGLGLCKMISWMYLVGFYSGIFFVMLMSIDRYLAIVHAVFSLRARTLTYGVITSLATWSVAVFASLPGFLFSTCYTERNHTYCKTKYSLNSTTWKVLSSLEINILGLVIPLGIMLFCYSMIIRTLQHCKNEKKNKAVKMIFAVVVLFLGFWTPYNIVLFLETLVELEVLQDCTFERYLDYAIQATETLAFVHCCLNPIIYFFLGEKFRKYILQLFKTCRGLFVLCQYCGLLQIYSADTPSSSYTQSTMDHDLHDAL
T7 sequence (P32121 whole entry partner, the tested form may be a part): as the sequence (P32121 whole entry partner, species assumed, the tested form may be a part) above

COC(=O)[C@H](CCCN=C(N)N)NC(=O)CCCc1c(-c2ccccc2)[nH]c2c(F)cc(F)cc12 [L803,087]
Fold induct. (SSTR4; SSTR4 fused to PK1 ED): 1.8 fold
Fold induct. (SSTR4; SSTR4 fused to PK2 ED): 2.1 fold

O=c1ccn([C@@H]2O[C@H](COP(=O)(O)OP(=O)(O)O)[C@@H](O)[C@H]2O)c(=O)[nH]1 [UDP]
Fold induct. (P2RY6; P2RY6 fused to PK1 ED): 1.3 fold
Fold induct. (P2RY6; P2RY6 fused to PK2 ED): 1.9 fold

O=C1CCCN1CC#CCN1CCCC1 [Oxotremorine]
Fold induct. (CHRM2; CHRM2 fused to PK1 ED): 1.6 fold

CCCCC[C@H](O)/C=C/[C@H]1C(=O)C[C@H](O)[C@@H]1C/C=C\CCCC(=O)O [Prostaglandin D2]
Fold induct. (CRTH2; CRTH2 fused to PK1 ED): none
Fold induct. (CRTH2; CRTH2 fused to PK2 ED): 2.6 fold

PTH (1-34)
Fold induct. (PTHR2): 72.9 fold

PTHRP
Fold induct. (PTHR2): none

C[N+](C)(C)CC#CCN1CCCC1=O [Oxotremorine M]
Fold induct. (CHRM2; CHRM2 fused to PK2 ED): 6.1 fold

TIP39
Fold induct. (PTHR2): 2.8 fold

CCL20
Fold induct. (CCR6; CCR6 fused to PK1 ED): 1.4 fold
Fold induct. (CCR6; CCR6 fused to PK2 ED): 6.5 fold

B1: CCL22 (protein)
chain: GPYGANMEDSVCCRDYVRYRLPLRVVKHFYWTSDSCPRPGVVLLTFRDKEICADPRVPWVKMILNKLSQ
notes: ligand employed for CCR4
Fold induct. (CCR4; CCR4 fused to PK1 ED): 18.9 fold
Fold induct. (CCR4; CCR4 fused to PK2 ED): 3 fold

B2: Relaxin-3 (protein)
chain: RAAPYGVRLCGREFIRAVIFTCGGSRWRRSDILAHEAMGDTFPDADADEDSLAGELDEAMGSSEWLALTKSPQAFYRGRPSWQGTPGVLRGSRDVLAGLSSSCCKWGCSKSEISSLC
notes: ligand employed for SALPR
Fold induct. (SALPR; SALPR fused to PK1 ED): none
Fold induct. (SALPR; SALPR fused to PK2 ED): 1.8 fold

Source: patent US8101373B2, “β-galactosidase donor fragments” (Discoverx Corporation, priority 2007, dated 2012)
